What was measured:
Conditions in all cases: protein: recombinant; tags: N-terminal His6 removed by PreScission protease; label: 5' biotin; single strand
[1] = target: T1, rnGLD-2 R325A (Rattus norvegicus, UniProt Q5U315 131-484, R325A); assay: EMSA; 4 uM protein, 50 nM RNA; EMSA: 20 mM Tris-HCl pH 8.0, 100 mM NaCl, 37 C 20 min; 4 uM protein, 50 nM 5' biotinylated RNA; 6% native gel, TAE pH 7.2, 4 C
T1 sequence: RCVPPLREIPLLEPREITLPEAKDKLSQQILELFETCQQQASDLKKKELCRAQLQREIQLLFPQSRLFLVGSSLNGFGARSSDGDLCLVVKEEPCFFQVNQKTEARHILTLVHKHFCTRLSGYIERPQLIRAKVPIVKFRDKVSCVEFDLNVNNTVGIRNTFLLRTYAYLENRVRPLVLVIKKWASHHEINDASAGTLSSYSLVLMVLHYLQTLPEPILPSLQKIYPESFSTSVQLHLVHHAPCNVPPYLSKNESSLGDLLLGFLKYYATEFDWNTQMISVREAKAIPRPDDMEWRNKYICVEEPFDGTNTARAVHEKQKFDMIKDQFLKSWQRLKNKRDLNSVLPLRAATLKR

[2] = target: T2, rnGLD-2 R443A (Rattus norvegicus, UniProt Q5U315 131-484, R443A); assay: as above
T2 sequence: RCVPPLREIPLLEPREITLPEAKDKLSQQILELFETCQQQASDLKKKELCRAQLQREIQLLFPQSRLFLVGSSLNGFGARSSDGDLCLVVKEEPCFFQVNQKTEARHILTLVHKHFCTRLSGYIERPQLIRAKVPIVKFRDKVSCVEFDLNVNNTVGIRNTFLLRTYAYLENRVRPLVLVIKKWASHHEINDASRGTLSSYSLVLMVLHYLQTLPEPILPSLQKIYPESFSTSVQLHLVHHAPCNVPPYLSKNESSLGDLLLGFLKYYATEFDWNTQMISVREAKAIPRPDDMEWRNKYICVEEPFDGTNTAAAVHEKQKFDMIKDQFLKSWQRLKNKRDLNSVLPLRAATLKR

[3] = target: T3, rnGLD-2 R236A (Rattus norvegicus, UniProt Q5U315 131-484, R236A); assay: EMSA; 4 uM protein, 50 nM RNA; efficient/tight binding stated; EMSA: 20 mM Tris-HCl pH 8.0, 100 mM NaCl, 37 C 20 min; 4 uM protein, 50 nM 5' biotinylated RNA; 6% native gel, TAE pH 7.2, 4 C
T3 sequence: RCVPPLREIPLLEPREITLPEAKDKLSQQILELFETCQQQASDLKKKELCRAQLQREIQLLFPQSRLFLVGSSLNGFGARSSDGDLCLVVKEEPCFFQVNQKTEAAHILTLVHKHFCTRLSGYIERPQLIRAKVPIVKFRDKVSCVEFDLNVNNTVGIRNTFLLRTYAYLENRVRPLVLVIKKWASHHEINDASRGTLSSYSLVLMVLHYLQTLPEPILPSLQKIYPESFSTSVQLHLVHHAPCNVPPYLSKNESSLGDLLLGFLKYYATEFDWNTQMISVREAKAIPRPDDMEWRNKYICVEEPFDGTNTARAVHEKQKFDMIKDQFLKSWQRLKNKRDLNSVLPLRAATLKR

[4] = target: T4, rnGLD-2 NTase region WT (Rattus norvegicus, UniProt Q5U315 131-484); assay: EMSA; 4 uM protein, 50 nM RNA; described as weak interaction; no Mg2+ listed in binding buffer; EMSA: 20 mM Tris-HCl pH 8.0, 100 mM NaCl, 37 C 20 min; 4 uM protein, 50 nM 5' biotinylated RNA; 6% native gel, TAE pH 7.2, 4 C
T4 sequence: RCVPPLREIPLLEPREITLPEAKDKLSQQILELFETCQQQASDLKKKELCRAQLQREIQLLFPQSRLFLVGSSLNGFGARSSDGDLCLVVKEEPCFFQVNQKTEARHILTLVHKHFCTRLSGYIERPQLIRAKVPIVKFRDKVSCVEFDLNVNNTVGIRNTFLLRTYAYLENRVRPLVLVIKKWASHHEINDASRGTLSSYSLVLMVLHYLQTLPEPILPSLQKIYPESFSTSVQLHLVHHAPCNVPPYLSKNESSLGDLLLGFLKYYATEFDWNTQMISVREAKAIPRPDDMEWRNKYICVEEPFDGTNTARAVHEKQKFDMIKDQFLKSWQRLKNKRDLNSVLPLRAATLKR

Q: Does AAAAAAAAAAAAAAA (ssRNA) [A15] bind [1]?
A: no binding

Q: Does AAAAAAAAAAAAAAA (ssRNA) [A15] bind [2]?
A: no binding

Q: Does AAAAAAAAAAAAAAA (ssRNA) [A15] bind [3]?
A: binds

Q: Does AAAAAAAAAAAAAAA (ssRNA) [A15] bind [4]?
A: binds
